Measurements from patent US20190119345A1 (published 2019).

B1: human NKG2D (receptor)
chain: IPLTESYCGPCPKNWICYKNNCYQFFDESKNWYESQASCMSQNASLLKVYSKEDQDLLKLVKSYHWMGLVHIPTNGSWQWEDGSILSPNLLTIIEMQKGDCALYASSFKGYIENCSTPNTYICMQRTV

Columns and labels:
[1] = target: OMCP (WT OMCPBR, cowpox virus Brighton Red) (cowpox virus (Brighton Red strain)); experiment: printed as 'binding coefficients'; method not stated
human NKG2D = target: B1; experiment: as above

Binder | Kd [1] [nM] | Kd (human NKG2D) [nM]
B1 | 0.1 | 
KYK-2 antibody (antibody, V domains shown) VH: QVQLVESGGGLVKPGGSLRLSCAASGFTFSSYGMHWVRQAPGKGLEWVAFIRYDGSNKYYADSVKGRFTISRDNSKNTLYLQMNSLRAEDTAVYYCAKDRGLGDGTYFDYWGQGTTVTVSS VL: QSALTQPASVSGSPGQSITISCSGSSSNIGNNAVNWYQQLPGKAPKLLIYYDDLLPSGVSDRFSGSKSGTSAFLAISGLQSEDEADYYCAAWDDSLNGPVFGGGTKLTVL |  | 6
KYK-1 antibody (antibody, V domains shown) VH: EVQLVESGGGVVQPGGSLRLSCAASGFTFSSYGMHWVRQAPGKGLEWVAFIRYDGSNKYYADSVKGRFTISRDNSKNTLYLQMNSLRAEDTAVYYCAKDRFGYYLDYWGQGTLVTVSS VL: QPVLTQPSSVSVAPGETARIPCGGDDIETKSVHWYQQKPGQAPVLVIYDDDDRPSGIPERFFGSNSGNTATLSISRVEAGDEADYYCQVWDDNNDEWVFGGGTQLTVL |  | 27
